The results in this text go back to article PMC6430795, “Complex formation of APP with GABAB receptors links axonal trafficking to amyloidogenic processing” (Nature Communications, 2019).

The target of one assay is Myc-GB1a (UniProt Q9Z0U4).
Another assay concerns the target T1, AJAP-1 on tsA201 cells (UniProt A2ALI5 44-412).
T1 construct: adherens junction-associated protein 1; cDNA from Source BioScience in pcDNA3; source: tsA201 cells, transfected, on cells
T1 sequence (looked up): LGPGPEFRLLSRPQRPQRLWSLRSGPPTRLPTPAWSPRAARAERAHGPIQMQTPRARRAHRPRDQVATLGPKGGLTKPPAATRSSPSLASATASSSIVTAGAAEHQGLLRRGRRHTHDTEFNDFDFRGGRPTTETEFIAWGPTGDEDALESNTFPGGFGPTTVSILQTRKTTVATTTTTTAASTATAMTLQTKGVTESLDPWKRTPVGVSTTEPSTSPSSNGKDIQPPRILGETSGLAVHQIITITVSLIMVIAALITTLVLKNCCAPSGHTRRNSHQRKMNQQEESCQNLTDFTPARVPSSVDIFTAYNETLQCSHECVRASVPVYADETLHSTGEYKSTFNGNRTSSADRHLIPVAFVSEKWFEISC
Kind of assay: immunostaining of cells or tissue; cell surface binding: transfected tsA201 cells incubated 30 min at room temperature with 0.2 to 2000 nM purified Myc-SD1/2 in OptiMEM, fixed, bound SD1/2 stained with anti-c-Myc and put into ratio with the expressed protein; apparent KD from a Hill equation with a coefficient of 1. The following applies: one partner purified.

A further assay has as its target T2, HA-PIANP on tsA201 cells (UniProt Q6P1B3 28-278).
T2 construct: PILRα-associated neural protein; cDNA from OriGene in pCMV6 with an HA-tag insertion after amino acid 27; source: tsA201 cells, transfected, on cells; not shown: HA, internal (after residue 27), kept
T2 sequence (looked up): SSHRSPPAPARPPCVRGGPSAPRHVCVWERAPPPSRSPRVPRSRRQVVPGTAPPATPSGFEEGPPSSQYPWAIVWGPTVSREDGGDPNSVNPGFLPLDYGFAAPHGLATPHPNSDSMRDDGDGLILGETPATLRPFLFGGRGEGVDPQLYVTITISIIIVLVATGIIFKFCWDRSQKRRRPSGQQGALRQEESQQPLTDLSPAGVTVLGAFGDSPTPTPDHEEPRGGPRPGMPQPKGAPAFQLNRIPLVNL
Described as above. The following applies: one partner purified.

The target in another assay is T3, APP on tsA201 cells (UniProt P05067-4 18-695).
T3 construct: expression was read with goat anti-APP; source: tsA201 cells, transfected, on cells
The assay is described as above. The following applies: one partner purified.

In the case of “APP (APP695, pCAX-APP695) (from UniProt P05067-4 18-695) (natural protein)”, in the assay with Myc-GB1a, the reduction of BACE1-mediated Aβ40 secretion into the medium of HEK293 cells in the presence of GB1a/2 receptors, ELISA 32 h post-transfection amounted to 77%; the reduction of the APP-βCTF/APP-FL ratio (BACE1 cleavage of APP) in HEK293 cells in the presence of GB1a/2 receptors, immunoblot densitometry was 60%; the reduction of the sAPPβ/APP-FL ratio (BACE1 cleavage of APP) in HEK293 cells in the presence of GB1a/2 receptors, immunoblot densitometry stood at 57%.

B1: recombinant SD1/2 protein (sushi domains 1 and 2 of GB1a) (domain or fragment, UniProt Q9Z0U4 20-158, looked up)
chain: QTPNATSEGCQIIHPPWEGGIRYRGLTRDQVKAINFLPVDYEIEYVCRGEREVVGPKVRKCLANGSWTDMDTPSRCVRICSKSYLTLENGKVFLTGGDLPALDGARVEFRCDPDFHLVGSSRSVCSQGQWSTPKPHCQV
notes: the two N-terminal sushi domains (SD1 and SD2) of the GABAB receptor subunit GB1a; the NMR samples are called unlabeled recombinant SD1/2; also called Myc-SD1/2; Myc-SDI/II
Turning to B1, the Kd in the assay with AJAP-1 on tsA201 cells turned out to be 6.4 nM; with HA-PIANP on tsA201 cells it was 29.1 nM; with APP on tsA201 cells, 188 nM.
